From the supplement of paper PMC10724198
± gives the standard deviation of the averaged measurements.

These sequences were tested on Saccharomyces cerevisiae (assay: protein stability index of tFT-peptide fusion (C-terminal peptide) (PSI (0-1 scale)); higher = more stable (slower turnover)). Conditions: genetic background: wild type; temperature: 30 C.
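Note: PSI is a weighted mean of sequencing reads over stability bins, variants kept only with over 10 reads, mCherry proximal and sfGFP distal, peptide attached via GGGS linker.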

Sequence	protein stability index
IACGAGGRGFSC	0.721 ± 0.025
IAISAPSLLDTS	0.643 ± 0.026
IALLQRTSSTPD	0.748 ± 0.028
IARLLFPPPGPI	0.643 ± 0.037
IASLVSVCFLRD	0.683 ± 0.029
IASNAENCDVGV	0.695 ± 0.11
ICFGCLSWAGSW	0.554 ± 0.057
ICLLGTSSQRRD	0.705 ± 0.0077
ICPWLLPPSCRS	0.738 ± 0.015
ICSDGIYTKGLC	0.66 ± 0.024
ICSFVFTTLFGG	0.6442 ± 0.0026
ICVSVLIRHREL	0.545 ± 0.019
IDRSHFAGVIVC	0.5735 ± 0.0029
IEESNKKIKNEI	0.713 ± 0.032
IEITERRQKKIQ	0.699 ± 0.088
IENREVNIVERT	0.686 ± 0.011
IENVETSLKVVG	0.651 ± 0.0081
IESKANPRRIEV	0.696 ± 0.027
IFCCFFPRFPVF	0.642 ± 0.013
IFKAIDQTYTDK	0.758 ± 0.15
IFWVGLSYVAEQ	0.65 ± 0.0084
IGARESGGWSLC	0.686 ± 0.023
IGFHSGLFYYHC	0.594 ± 0.056

Sequence	protein stability index
IGGAPRIETIYP	0.704 ± 0.074
IGGLAGFGSALT	0.759 ± 0.12
IGGPIIYTGRLH	0.682 ± 0.19
IGISIRTAQGEL	0.674 ± 0.02
IGMICYGKDTQY	0.726 ± 0.0073
IGRWHCPDLPRH	0.653 ± 0.12
IGWFGRCGCCCW	0.714 ± 0.2
IGYSSIYKTTGT	0.668 ± 0.033
IHLGVLTAFGLS	0.701 ± 0.032
IIAGGGPARGCG	0.635 ± 0.0071
IIGPFDSYVYGL	0.7 ± 0.0071
IIGVKNEGRGRE	0.724 ± 0.089
IILKEDKSIKKR	0.6595 ± 0.0032
IITAARGDTLSR	0.706 ± 0.018
IKDESNLKKHKN	0.715 ± 0.041
IKGKYYEAKNKI	0.714 ± 0.054
IKKKKKKKKKRQ	0.668 ± 0.027
IKKKKKVRYIRI	0.705 ± 0.06
IKKKKNKKENAE	0.725 ± 0.092
IKKKTTKTKIKK	0.741 ± 0.031
IKKNKQNKIKRN	0.699 ± 0.016
IKNRRTSKYLII	0.548 ± 0.0058
IKPKKKEKKQEN	0.704 ± 0.046

Sequence	protein stability index
IKRYYLDSMKRK	0.576 ± 0.0069
IKSHHVIPNSCL	0.616 ± 0.058
IKSKCIQSKETT	0.6037 ± 0.005
IKVRGEQAEEAE	0.684 ± 0.04
ILFLRFLHSVFS	0.5364 ± 0.0038
ILGPPPRLPFPS	0.657 ± 0.012
ILHCVCFGLFHF	0.614 ± 0.014
ILPFSGLAFFLP	0.677 ± 0.039
IMGGPGLTALSR	0.729 ± 0.061
IMGLGLASAKRM	0.677 ± 0.073
IMGRRGEDGVID	0.682 ± 0.061
INGTEYVVGRKA	0.686 ± 0.0097
INKKETKKNKIK	0.612 ± 0.073
INTVGRCCGLVE	0.681 ± 0.043
IPFPSSARLRAD	0.708 ± 0.02
IPGVPEGLRSLH	0.629 ± 0.06
IPRGTTTFLLEV	0.638 ± 0.041
IPRRSSIPDKTP	0.718 ± 0.045
IPSSMWHICCLC	0.538 ± 0.025
IQGRFYPLLEAH	0.606 ± 0.032
IQYGSSVRREGR	0.72 ± 0.22
IRIDRNLNSLGK	0.685 ± 0.017
IRIKLTYYKSYL	0.678 ± 0.13

Sequence	protein stability index
IRKIIHIDNGNT	0.741 ± 0.096
IRKNLIPLTIFT	0.538 ± 0.028
IRMEYVNTVINK	0.642 ± 0.049
IRPPVLTDAIHS	0.708 ± 0.013
IRPSVCQAPDMR	0.679 ± 0.042
IRRGRQGGEHEK	0.702 ± 0.097
IRSLSGPLSRTF	0.673 ± 0.076
IRYEVVDLEPRG	0.693 ± 0.15
ISEIRHSGFTRL	0.741 ± 0.084
ISGTDGVRHFLG	0.662 ± 0.018
ISIFTCLGRFSL	0.677 ± 0.037
ISLRELNEVCRS	0.668 ± 0.029
ISQNPYNGTGQE	0.6886 ± 0.001
ISTSPRCCPRLL	0.714 ± 0.023
ITNKKKIKDKQT	0.593 ± 0.033
ITQTRGPRPLAH	0.7471 ± 0.0043
ITSFIKSDKSSK	0.696 ± 0.029
ITTNTESSRQSY	0.702 ± 0.014
ITVFRAEVRTKK	0.6846 ± 0.0054
ITVWVLSDGIGV	0.5619 ± 0.002
IVDYSRYVIGLE	0.663 ± 0.0095
IVFTPPSVTFHA	0.825 ± 0.22
IVLGPHNFLTIL	0.676 ± 0.018

Sequence	protein stability index
IVLSRVHLLVGP	0.5798 ± 0.0032
IVPFLLFYSPPA	0.719 ± 0.055
IVRNDRSGPWGD	0.756 ± 0.12
IYFRILKKRSKT	0.639 ± 0.02
IYGCISVYYSSG	0.562 ± 0.014
IYSPLSPSTAPA	0.664 ± 0.012
IYSTRWRRGRVE	0.699 ± 0.044
KAAQREVDLLVT	0.668 ± 0.021
KAHSFAYVINCL	0.589 ± 0.045
KAKKLRKKNENK	0.671 ± 0.038
KAKKNNERAKHR	0.681 ± 0.029
KDATVILSSRRR	0.745 ± 0.024
KDCGSVRQGLRY	0.754 ± 0.04
KDGAGGDWDVGE	0.6948 ± 0.006
KDINNQKKETQR	0.683 ± 0.047
KDIVSQEEHAPL	0.678 ± 0.036
KDNAPTLPQGGN	0.662 ± 0.06
KDTGTNKASRGQ	0.67 ± 0.014
KEATTEKNTTRA	0.6895 ± 0.0023
KEILATRQKSST	0.738 ± 0.04
KEKSSKRSGKTE	0.644 ± 0.15
KENKKKNKKYKK	0.785 ± 0.16
KERYKNHGQKAS	0.683 ± 0.017

Sequence	protein stability index
KETNIKKRRARG	0.6458 ± 0.0021
KFKGIKEINNGN	0.633 ± 0.074
KGGCPTASARVL	0.5735 ± 0.0011
KGGKVGRAGEKG	0.644 ± 0.098
KGIGWSSDGGMG	0.67 ± 0.02
KGKGREEEDISK	0.674 ± 0.015
KGKKTTKTDAKK	0.612 ± 0.061
KGKRGKKKEESN	0.6515 ± 0.0039
KGNDQVLRLFIR	0.73 ± 0.021
KGNRGKDAVKTE	0.7556 ± 0.004
KGRFILKCKDIF	0.637 ± 0.071
KGRFTKTKLRVH	0.5602 ± 0.0013
KGRGEVGTRRYG	0.638 ± 0.079
KGRSKHIKGKRR	0.743 ± 0.033
KGTKIGRPVRVI	0.689 ± 0.016
KHLNFNTNKRKD	0.651 ± 0.0093
KHPMRLPHTRRA	0.706 ± 0.045
KHTNWGKQLIMT	0.5631 ± 0.0016
KICHTKKKNKKK	0.769 ± 0.046
KIGSQLAGYKIS	0.595 ± 0.063
KIKKKKKNTKTK	0.666 ± 0.047
KIKKRRKKDNKR	0.7145 ± 0.0013
KIKSKKEKPQVT	0.687 ± 0.023

Sequence	protein stability index
KIKTKKGTKKRK	0.677 ± 0.039
KIRINKKVKNKK	0.671 ± 0.005
KITLKSNKTTDN	0.741 ± 0.018
KIVCTLGPAFAR	0.672 ± 0.051
KIVKNQKKKKQR	0.732 ± 0.019
KKARGYTLEQRR	0.736 ± 0.051
KKEEEGNREEKL	0.689 ± 0.038
KKEEEGRTKECR	0.694 ± 0.093
KKEEKKKNKNDR	0.679 ± 0.027
KKEISEKTNKKL	0.69 ± 0.012
KKEKKVKKNRKR	0.729 ± 0.021
KKEKQKKKIKTK	0.703 ± 0.055
KKERTGTKKKKK	0.698 ± 0.048
KKESNFVKKKEI	0.741 ± 0.024
KKGIKEYYKVQK	0.775 ± 0.16
KKHEKVKSNTKR	0.666 ± 0.03
KKIYEKRKKLRK	0.756 ± 0.057
KKKDRENIKNKI	0.7151 ± 0.0068
KKKEENGGRGDE	0.7008 ± 0.0041
KKKKDQQQELKN	0.657 ± 0.032
KKKKEKKETKKK	0.67 ± 0.028
KKKKEKKYKERY	0.721 ± 0.13
